Patent publication US20210380703A1 (RIGEL PHARMACEUTICALS, published 2021)

What was measured:
Human ACVR2A [1] = target: T1, Human ACVR2A (human, UniProt P27037 20-135, limits assumed); assay: ELISA
T1 construct: also called activin receptor, type II A
Method in brief: (§1)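 mAb binding by ELISA; antigens: hu ACVR2A, mu ACVR2A; pos ctrl biotinylated goat anti-hu kappa LC; neg ctrl hu Fc.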

Mouse ACVR2A [2] = target: Mouse ACVR2A (mouse, UniProt P27038 20-135, limits assumed); assay: ELISA
Method in brief: as §1

Goat anti-Human Kappa = target: T2, Goat anti-Human Kappa; assay: ELISA; positive control
T2 construct: Positive control; also called biotinylated goat anti-human kappa light chain
Method in brief: (§2)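 Monoclonal antibodies were first applied to human or mouse ACVR2A, alongside biotinylated goat anti-human kappa light chain (positive control) and human Fc (negative control); binding was then determined by ELISA.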

human ACVR2A [3] = target: human ACVR2A (human, UniProt P27037 20-135, limits assumed); assay: ELISA
Method in brief: as §1

mouse ACVR2A [4] = target: mouse ACVR2A (mouse, UniProt P27038 20-135, limits assumed); assay: ELISA
Method in brief: as §1

[5] = target: T3, biotinylated goat anti-human kappa light chain; assay: ELISA; positive control
T3 construct: Positive control of the ELISA
Method in brief: as §2
Also: test concentration or dose not given here.

T1 sequence (P27037 20-135 limits assumed): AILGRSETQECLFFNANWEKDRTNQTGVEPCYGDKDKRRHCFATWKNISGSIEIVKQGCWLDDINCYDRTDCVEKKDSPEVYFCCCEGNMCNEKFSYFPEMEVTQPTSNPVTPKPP
Chain of human ACVR2A (P27037 20-135 limits assumed): as above
Chain of Mouse ACVR2A (P27038 20-135 limits assumed): as the sequence (P27037 20-135 limits assumed) above, with K20R, V73I counted along it
Chain of mouse ACVR2A (P27038 20-135 limits assumed): as the sequence (P27037 20-135 limits assumed) above, with K20R, V73I counted along it

Row | Binder | optical density (Human ACVR2A [1]) [OD] | optical density (Mouse ACVR2A [2]) [OD] | optical density (Goat anti-Human Kappa) [OD] | optical density (human ACVR2A [3]) [OD] | optical density (mouse ACVR2A [4]) [OD] | optical density [5] [OD]
1 | 370_A09 (antibody, V domains shown, VH/VL only) VH: EVQLLESGGGLVQPGGSLRLSCAASGFTFSSYSMNWVRQAPGKGLEWVAGINYNGGYTGYADSVKGRFTISRDNSKNTLYLQMNSLRAEDTAVYYCARSATWHDTHLDYWGQGTLVTVSS VL: DIQMTQSPSSLSASVGDRVTITCRASQSILTYLNWYQQKPGKAPKLVIYAATSRASGVPSRFSGSGSGTDFTLTISSLQPEDFATYYCQQSYDTPLTFGGGTKVEIK |  |  |  | 3.46 | 3.27 | 3.58
2 | 365_A01 (antibody, V domains shown, VH/VL only) VH: EVQLLESGGGLVQPGGSLRLSCAASGFTFSDYGMNWVRQAPGKGLEWVAGINYNGGYTSYADSVKGRFTISRDNSKNTLYLQMNSLRAEDTAVYYCARSATWHDTHLDYWGQGTLVTVSS VL: DIQMTQSPSSLSASVGDRVTITCRASQSILTYVNWYQQKPGKAPKLVIYATTSLASGVPSRFSGSGSGTDFTLTISSLQPEDFATYYCQQSYSTPLTFGGGTKVEIK |  |  |  | 2.77 | 2.9 | 3.51
3 | 365_A07 (antibody, V domains shown, VH/VL only) VH: EVQLLESGGGLVQPGGSLRLSCAASGFTFSSYGMNWVRQAPGKGLEWVAGINYNSGYKGYADSVKGRFTISRDNSKNTLYLQMNSLRAEDTAVYYCARSATWHDTHLDYWGQGTLVTVSS VL: DIQMTQSPSSLSASVGDRVTITCRASQSIVSYLNWYQQKPGKAPKLLIYAATSRASGVPSRFSGSGSGTDFTLTISSLQPEDFATYYCQQSYNLPLTFGGGTKVEIK |  |  |  | 2.24 | 2.25 | 3.41
4 | 365_A10 (antibody, V domains shown, VH/VL only) VH: EVQLLESGGGLVQPGGSLRLSCAASGFTFSSYGMHWVRQAPGKGLEWVAGINYNSGYTSYADSVKGRFTISRDNSKNTLYLQMNSLRAEDTAVYYCARSATWHDTHLDYWGQGTLVTVSS VL: DIQMTQSPSSLSASVGDRVTITCRASQSILTYLNWYQQKPGKAPKLVIYAVTSLASGVPSRFSGSGSGTDFTLTISSLQPEDFATYYCQQSYDSPLTFGGGTKVEIK |  |  |  | 2.19 | 2.49 | 3.45
5 | 365_B03 (antibody, V domains shown, VH/VL only) VH: EVQLLESGGGLVQPGGSLRLSCAASGFTFSSYSMNWVRQAPGKGLEWVAGINYNGGYTGYADSVKGRFTISRDNSKNTLYLQMNSLRAEDTAVYYCARSATWHDTHLDYWGQGTLVTVSS VL: DIQMTQSPSSLSASVGDRVTITCRASQSIVSYLNWYQQKPGKAPKLLIYAATSRASGVPSRFSGSGSGTDFTLTISSLQPEDFATYYCQQSYENPLTFGGGTKVEIK |  |  |  | 2.65 | 2.53 | 3.38
6 | 365_B09 (antibody, V domains shown, VH/VL only) VH: EVQLLESGGGLVQPGGSLRLSCAASGFTFDSYSMNWVRQAPGKGLEWVAGINYNSGYKSYADSVKGRFTISRDNSKNTLYLQMNSLRAEDTAVYYCARSATWHDTHLDYWGQGTLVTVSS VL: DIQMTQSPSSLSASVGDRVTITCRASQSILRYLNWYQQKPGKAPKLLIYAATSLHSGVPSRFSGSGSGTDFTLTISSLQPEDFATYYCQQSYDNPLTFGGGTKVEIK |  |  |  | 3.26 | 3.32 | 3.28
7 | 365_C07 (antibody, V domains shown, VH/VL only) VH: EVQLLESGGGLVQPGGSLRLSCAASGFTFSDYGMNWVRQAPGKGLEWVASINYNGGYTSYADSVKGRFTISRDNSKNTLYLQMNSLRAEDTAVYYCARSATWHDTALDYWGQGTLVTVSS VL: DIQMTQSPSSLSASVGDRVTITCRASQSIVSYVNWYQQKPGKAPKLLIYAATSRASGVPSRFSGSGSGTDFTLTISSLQPEDFATYYCQQSYDTPLTFGGGTKVEIK |  |  |  | 1.94 | 1.92 | 3.17
8 | 365_C09 (antibody, V domains shown, VH/VL only) VH: EVQLLESGGGLVQPGGSLRLSCAASGFTFSDYGMNWVRQAPGKGLEWVSGINYNGGYKSYADSVKGRFTISRDNSKNTLYLQMNSLRAEDTAVYYCARSATWHDTHLDYWGQGTLVTVSS VL: DIQMTQSPSSLSASVGDRVTITCRASQSIVSYVNWYQQKPGKAPKLLIYAATSRASGVPSRFSGSGSGTDFTLTISSLQPEDFATYYCQQSYDTPLTFGGGTKVEIK |  |  |  | 2.05 | 2.18 | 3.27
9 | 365_D05 (antibody, V domains shown, VH/VL only) VH: EVQLLESGGGLVQPGGSLRLSCAASGFTFDSYSMNWVRQAPGKGLEWVAGINYNGGYTSYADSVKGRFTISRDNSKNTLYLQMNSLRAEDTAVYYCARSATWHDTHLDYWGQGTLVTVSS VL: DIQMTQSPSSLSASVGDRVTITCRASQSILTYVNWYQQKPGKAPKLLIYAATSRASGVPSRFSGSGSGTDFTLTISSLQPEDFATYYCQQSYNSPLTFGGGTKVEIK |  |  |  | 2.58 | 2.72 | 3.51
10 | 365_E02 (antibody, V domains shown, VH/VL only) VH: EVQLLESGGGLVQPGGSLRLSCAASGFTFSSYSMNWVRQAPGKGLEWVANINYNGGYTSYADSVKGRFTISRDNSKNTLYLQMNSLRAEDTAVYYCAKSATWHDTHLDYWGQGTLVTVSS VL: DIQMTQSPSSLSASVGDRVTITCRASQSIISYLNWYQQKPGKAPKLLIYAATSRASGVPSRFSGSGSGTDFTLTISSLQPEDFATYYCQQSYENPLTFGGGTKVEIK |  |  |  | 2.45 | 2.61 | 3.5

The next lines start with the values.

Row | optical density (Human ACVR2A [1]) [OD] | optical density (Mouse ACVR2A [2]) [OD] | optical density (Goat anti-Human Kappa) [OD] | optical density (human ACVR2A [3]) [OD] | optical density (mouse ACVR2A [4]) [OD] | optical density [5] [OD] | Binder
11 | 2.32 | 2.65 | 3.27 |  |  |  | 365_H03 (antibody, V domains shown, VH/VL only) VH: EVQLLESGGGLVQPGGSLRLSCAASGFTFDDYGMNWVRQAPGKGLEWVAGINYNGGYKSYADSVKGRFTISRDNSKNTLYLQMNSLRAEDTAVYYCARSANWHDTALDYWGQGTLVTVSS VL: DIQMTQSPSSLSASVGDRVTITCRASQSILSYVNWYQQKPGKAPKLVIYAATSLHSGVPSRFSGSGSGTDFTLTISSLQPEDFATYYCQQSYNNPLTFGGGTKVEIK
12 | 2.42 | 2.68 | 3.37 |  |  |  | 366_A07 (antibody, V domains shown, VH/VL only) VH: EVQLLESGGGLVQPGGSLRLSCAASGFTFSSYGMHWVRQAPGKGLEWVASINYNGGYTGYADSVKGRFTISRDNSKNTLYLQMNSLRAEDTAVYYCARSANWHDTALDYWGQGTLVTVSS VL: DIQMTQSPSSLSASVGDRVTITCRASQSIVSYVNWYQQKPGKAPKLVIYAATSRHSGVPSRFSGSGSGTDFTLTISSLQPEDFATYYCQQSYESPLTFGGGTKVEIK
13 | 2.35 | 2.39 | 3.45 |  |  |  | 366_E10 (antibody, V domains shown, VH/VL only) VH: EVQLLESGGGLVQPGGSLRLSCAASGFTFDSYGMNWVRQAPGKGLEWVSGINYNGGYKGYADSVKGRFTISRDNSKNTLYLQMNSLRAEDTAVYYCARSANWHDTHLDYWGQGTLVTVSS VL: DIQMTQSPSSLSASVGDRVTITCRASQSILSYVNWYQQKPGKAPKLVIYAATSRHSGVPSRFSGSGSGTDFTLTISSLQPEDFATYYCQQSYSLPLTFGGGTKVEIK
14 | 2.21 | 2.5 | 3.26 |  |  |  | 366_G05 (antibody, V domains shown, VH/VL only) VH: EVQLLESGGGLVQPGGSLRLSCAASGFTFDSYGMNWVRQAPGKGLEWVSNINYNGGYTSYADSVKGRFTISRDNSKNTLYLQMNSLRAEDTAVYYCARSANWHDTALDYWGQGTLVTVSS VL: DIQMTQSPSSLSASVGDRVTITCRASQSIISYVNWYQQKPGKAPKLVIYAATSRASGVPSRFSGSGSGTDFTLTISSLQPEDFATYYCQQSYENPLTFGGGTKVEIK
15 | 2.53 | 2.67 | 3.6 |  |  |  | 366_H07 (antibody, V domains shown, VH/VL only) VH: EVQLLESGGGLVQPGGSLRLSCAASGFTFSSYGMHWVRQAPGKGLEWVSGINYNGGYTSYADSVKGRFTISRDNSKNTLYLQMNSLRAEDTAVYYCARSANWHDTALDYWGQGTLVTVSS VL: DIQMTQSPSSLSASVGDRVTITCRASQSIISYVNWYQQKPGKAPKLVIYAVTSRASGVPSRFSGSGSGTDFTLTISSLQPEDFATYYCQQSYENPLTFGGGTKVEIK
16 | 2.1 | 2.44 | 3.42 |  |  |  | 366_H09 (antibody, V domains shown, VH/VL only) VH: EVQLLESGGGLVQPGGSLRLSCAASGFTFDSYGMNWVRQAPGKGLEWVSNINYNSGYKGYADSVKGRFTISRDNSKNTLYLQMNSLRAEDTAVYYCARSANWHDTALDYWGQGTLVTVSS VL: DIQMTQSPSSLSASVGDRVTITCRASQSIVSYVNWYQQKPGKAPKLVIYATTSRASGVPSRFSGSGSGTDFTLTISSLQPEDFATYYCQQSYSSPLTFGGGTKVEIK
17 | 2.29 | 2.42 | 3.53 |  |  |  | 367_B02 (antibody, V domains shown, VH/VL only) VH: EVQLLESGGGLVQPGGSLRLSCAASGFTFDSYGMNWVRQAPGKGLEWVSSINYNGGYTSYADSVKGRFTISRDNSKNTLYLQMNSLRAEDTAVYYCARSANWHDTALDYWGQGTLVTVSS VL: not shown
18 |  |  |  | 2.26 | 2.51 | 3.47 | 365_F04 (antibody, V domains shown, VH/VL only) VH: EVQLLESGGGLVQPGGSLRLSCAASGFTFSSYGMNWVRQAPGKGLEWVAGINYNGGYTGYADSVKGRFTISRDNSKNTLYLQMNSLRAEDTAVYYCARSATWHDTHLDYWGQGTLVTVSS VL: DIQMTQSPSSLSASVGDRVTITCRASQSIVTYVNWYQQKPGKAPKLLIYAATSRASGVPSRFSGSGSGTDFTLTISSLQPEDFATYYCQQSYDTPLTFGGGTKVEIK
19 |  |  |  | 3.12 | 3.18 | 3.39 | 365_F07 (antibody, V domains shown, VH/VL only) VH: EVQLLESGGGLVQPGGSLRLSCAASGFTFSSYSMNWVRQAPGKGLEWVSNINYNGGYKSYADSVKGRFTISRDNSKNTLYLQMNSLRAEDTAVYYCARSATWHDTALDYWGQGTLVTVSS VL: DIQMTQSPSSLSASVGDRVTITCRASQSILSYVNWYQQKPGKAPKLVIYAATSRASGVPSRFSGSGSGTDFTLTISSLQPEDFATYYCQQSYDLPLTFGGGTKVEIK
